Laboratory results published in paper PMC3975505.

Target: lnkH2B-H2A.Z (linked H2B-H2A.Z, single polypeptide chain) (human) (UniProt Q16778)
Assay: AUC

stoichiometry N: 1
Binder: EEEEEEEEEDEDEDEDEDEAGSELGEGEEEVGLSYLMKEEIQDEEDD (domain or fragment) [Anp32e_(186-232)]
